Substrate in the data set: O=[N+]([O-])c1ccc(O[C@@H]2O[C@H](CO)[C@@H](O)[C@H](O)[C@H]2O)cc1
Description: purified protein. The note with it: free enzyme, 2–16 mM p-NPG, 50 mM NaAc-HAc buffer, 40 °C.

For orientation: Km means the concentration of substrate that gives half-maximal velocity. A word on the kcat: it is the number of substrate molecules converted per active site and unit of time at saturation. As a reminder, the kcat/Km is the second-order rate constant that governs catalysis at low substrate concentration.

B1: β-glucosidase (BG), his-tagged (Coptotermes formosanus) (protein)
chain: DDVDNDTLVTFPDDFKLGAATASYQIEGGWDADGKGPNIWDTLTHERPHLVVDRSTGDVADDSYHLYLEDVRLLKDMGAEVYRFSISWARILPEGHDNNVNEAGIEYYNKLIDALLRNGIEPMVTMYHWDLPQKLQDLGGWPNRILAKYAENYARVLFSNFGDRVKQWLTFNEPLTFMDAYASDTGMAPSVDTPGIGDYLTAHTVILAHANIYRLYEREFREEQQGQVGIALNIHWCEPETGSPKDVEACERYQQFNLGIYAHPIFSENGDYPSVLKARVDANSASEGYTTSRLPKFTPEEVAFVNGTYDFLGLNFYTAVVGRDGVEGEPPSRYRDMGTITSQDPEWPESASSWLRVVPWGFRKELNWIANEYGNPPIFITENGFSDYGGVNDTNRVLYYTEHLKEMLKAIHIDGVNVIGYTAWSLIDNFEWLRGYTERFGIHAVNFIDPSRPRTPKESARVLTEIFKTRQIPERFRD
B1: the Km is 4.2 ± 0.3 mM, the kcat came to 58.8 s⁻¹ and the kcat/Km was 14000 M⁻¹ s⁻¹.

Values taken from publication PMC5278371.
